Laboratory results: publication PMC3581772, “Protease-activated alpha-2-macroglobulin can inhibit amyloid formation via two distinct mechanisms” (Febs Letters, 2013)

Biological target: the molecule itself
Assay: thioflavin T fluorescence of fibril formation; I59T lysozyme 6.8 μM, 0.1 M citrate buffer pH 5.0, 25 μM ThT, 60 °C, with stirring; self-association into fibrils

B1: I59T human lysozyme (natural protein, UniProt P61626 19-148, looked up)
chain: KVFERCELARTLKRLGMDGYRGISLANWMCLAKWESGYNTRATNYNAGDRSTDYGIFQTNSRYWCNDGKTPGAVNACHLSCSALLQDNIADAVACAKRVVRDPQGIRAWVAWRNRCQNRDVRQYVQGCGV
notes: human lysozyme, non-natural variant I59T; monomer 14.7 kDa; also called I59T lysozyme; source: expressed and purified as previously described [16]
B1: binds.
